Laboratory results from paper PMC7427744, “Using singular perturbation theory to determine kinetic parameters in a non-standard coupled enzyme assay” (Journal of Mathematical Biology, 2020).

Assays:
[1] = substrate: CC(N)CC(=O)O; test: purified protein; type: biochemical, Cupriavidus necator; conditions: co-substrate 5 mM pyruvate (assumed saturating), 2.5 mM NAD+, 5 uM PLP, sodium carbonate buffer pH 10, 30 C
[2] = substrate: NCCCCC(=O)O; test: purified protein; type: biochemical, Cupriavidus necator; conditions: co-substrate 5 mM pyruvate (assumed saturating), 2.5 mM NAD+, 5 uM PLP, sodium carbonate buffer pH 10, 30 C

B1: CnAptA (Cupriavidus necator H16) (protein)
chain: MDAAKTVIPDLDALWMPFTANRQYKAAPRLLASASGMYYTTHDGRQILDGCAGLWCVAAGHCRTEIAEAVARQAATLDYAPPFQMGHPLSFEAATKVAAIMPQGLDRIFFTNSGSESVDTALKIALAYHRARGEGQRTRFIGRERGYHGVGFGGMAVGGIGPNRKAFSANLMPGTDHLPATLNIAEAAFSKGQPQWGAHLADELERILALHDPSNVAAVIVEPLAGSAGVLVPPVGYLEKLREITSKHGILLIFDEVITAFGRLGAATAAERFKVTPDLITMAKAINNAAVPMGAVAVRREVHDTVVNSAAPGAIELLHGYTYSGHPLAAAAAIATLDLYQRENLFGRAAELAPVFEAAVHGVRGAPHVKDIRNYGLVAGIELEPRPGQPGARAYEAFLKCLELGVLVRYTGDILAFSPPLIISEAQIGELFDTVKKALQDIK
notes: E. coli ER2566 host; 47 kDa
- Km [1]: 1300 µM
- Km [2]: 930 µM
